Each block holds one binder with its values, some of them ahead of it.
Key:
[1] = target: AChR (A, B, D and E) expressed on recombinant 293T cells; test: cell-based or functional assay
[2] = target: T1, fetal acetylcholine receptor (AChR) on the cell membrane of TE671 cells (human, UniProt P02708 21-457; P11230 24-501; Q07001 22-517; P07510 23-517); test: flow cytometry competition on TE671 cells expressing fetal AChR; competitor biotinylated mAb637 at 8 µg/ml, detected with labelled streptavidin
T1 construct: whole, on cells; The subunit make-up (alpha2, beta, gamma, delta) is general knowledge of the fetal receptor; also called autoantigen AChR
T1 sequence (P02708 21-457, chain 1 of 4): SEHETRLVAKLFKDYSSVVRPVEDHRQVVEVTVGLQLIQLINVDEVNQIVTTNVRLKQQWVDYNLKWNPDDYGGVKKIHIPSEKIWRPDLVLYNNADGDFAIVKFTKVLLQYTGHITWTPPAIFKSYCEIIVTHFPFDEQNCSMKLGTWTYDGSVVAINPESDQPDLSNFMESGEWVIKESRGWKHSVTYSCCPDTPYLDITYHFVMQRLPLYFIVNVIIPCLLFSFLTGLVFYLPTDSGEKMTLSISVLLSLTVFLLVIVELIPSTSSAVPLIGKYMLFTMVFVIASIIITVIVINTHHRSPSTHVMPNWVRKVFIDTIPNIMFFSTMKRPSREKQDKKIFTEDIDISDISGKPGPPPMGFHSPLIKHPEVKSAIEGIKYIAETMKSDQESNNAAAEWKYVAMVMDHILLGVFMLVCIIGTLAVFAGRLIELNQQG
T1 sequence (P11230 24-501, chain 2 of 4): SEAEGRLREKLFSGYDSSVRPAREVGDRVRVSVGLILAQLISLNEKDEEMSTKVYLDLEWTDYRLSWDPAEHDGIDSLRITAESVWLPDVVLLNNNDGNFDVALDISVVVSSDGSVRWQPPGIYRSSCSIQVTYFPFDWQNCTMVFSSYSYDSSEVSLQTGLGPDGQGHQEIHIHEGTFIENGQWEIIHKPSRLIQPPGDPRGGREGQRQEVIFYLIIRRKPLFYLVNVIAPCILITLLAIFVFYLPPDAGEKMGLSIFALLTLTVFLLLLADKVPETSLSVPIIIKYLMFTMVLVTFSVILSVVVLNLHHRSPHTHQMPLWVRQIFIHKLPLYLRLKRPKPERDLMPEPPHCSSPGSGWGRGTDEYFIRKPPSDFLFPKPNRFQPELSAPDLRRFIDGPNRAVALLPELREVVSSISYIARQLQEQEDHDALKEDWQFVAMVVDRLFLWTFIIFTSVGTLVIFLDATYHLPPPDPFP
T1 sequence (Q07001 22-517, chain 3 of 4): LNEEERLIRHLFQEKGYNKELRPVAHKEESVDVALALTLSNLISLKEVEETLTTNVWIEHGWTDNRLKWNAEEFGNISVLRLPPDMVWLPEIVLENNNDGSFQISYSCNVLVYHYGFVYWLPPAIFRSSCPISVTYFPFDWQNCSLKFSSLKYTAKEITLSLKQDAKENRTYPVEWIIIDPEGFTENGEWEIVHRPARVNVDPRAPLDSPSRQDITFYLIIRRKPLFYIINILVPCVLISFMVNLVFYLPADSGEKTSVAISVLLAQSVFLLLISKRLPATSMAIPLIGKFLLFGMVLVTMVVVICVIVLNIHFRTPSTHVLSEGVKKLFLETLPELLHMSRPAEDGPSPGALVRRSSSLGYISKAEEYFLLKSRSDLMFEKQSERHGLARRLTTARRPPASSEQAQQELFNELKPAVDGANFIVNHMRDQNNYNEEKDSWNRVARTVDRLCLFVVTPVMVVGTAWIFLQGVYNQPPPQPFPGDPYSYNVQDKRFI
T1 sequence (P07510 23-517, chain 4 of 4): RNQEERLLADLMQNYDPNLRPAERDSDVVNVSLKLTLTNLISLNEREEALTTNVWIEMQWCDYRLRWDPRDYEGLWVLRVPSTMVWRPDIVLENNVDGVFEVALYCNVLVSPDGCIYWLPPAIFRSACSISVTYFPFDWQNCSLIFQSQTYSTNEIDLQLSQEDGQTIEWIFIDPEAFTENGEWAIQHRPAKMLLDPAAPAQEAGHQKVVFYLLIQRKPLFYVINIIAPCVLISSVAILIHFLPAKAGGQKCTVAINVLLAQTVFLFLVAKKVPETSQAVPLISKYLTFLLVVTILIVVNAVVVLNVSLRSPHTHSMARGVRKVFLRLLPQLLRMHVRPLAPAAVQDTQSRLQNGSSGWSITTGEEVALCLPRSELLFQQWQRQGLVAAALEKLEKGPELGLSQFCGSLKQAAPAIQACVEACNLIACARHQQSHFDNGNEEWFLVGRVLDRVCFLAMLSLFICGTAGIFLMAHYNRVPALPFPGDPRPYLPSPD

B3: mAb192 C IgG1 (antibody)
heavy: not shown
light: QVQLLESGPGLVQPSQTLSLTCTVSGFSLTTNGVSWVRQPPGKGLEWIAAISSGGSPYYNSALKSRLSINRDTSKSQVFLKMNSLQTEDTAIYFCTREDGWNYFDYWGPGTMVTVSSASVAAPSVFIFPPSDEQLKSGTASVVCLLNNFYPREAKVQWKVDNALQSGNSQESVTEQDSKDSTYSLSSTLTLSKADYEKHKVYACEVTHQGLSSPVTKSFNRGEC
decrease of apoptosis (CDC cell death) caused by humanized mAb35, at 0.15 µg/ml [1]: > 37%
decrease of the ratio of C5b-9 positive cells caused by humanized mAb35, at 0.15 µg/ml [1]: > 60%

B4: mAb637 B (antibody, human IgG2, kappa)
heavy: NFELTQPHSVSESPGKTVTISCTRSSGSIASNYVQWYQQRPGSSPTTVIYEDNQRPSGVPDRFSGSIDSSSNSASLTISGLKTEDEADYYCQSYDSNSGGRVFGGGTKLTVLRTVAAPSVFIFPPSDEQLKSGTASVVCLLNNFYPREAKVQWKVDNALQSGNSQESVTEQDSKDSTYSLSSTLTLSKADYEKHKVYACEVTHQGLSSPVTKSFNRGECERKCCVECPPCPAPPVAGPSVFLFPPKPKDTLMISRTPEVTCVVVDVSQEDPEVQFNWYVDGVEVHNAKTKPREEQFNSTYRVVSVLTVLHQDWLNGKEYKCKVSNKGLPSSIEKTISKAKGQPREPQVYTLPPSQEEMTKNQVSLTCLVKGFYPSDIAVEWESNGQPENYKTTPPVLDSDGSFFLYSRLTVDKSRWQEGNVFSCSVMHEALHNHYTQKSLSLSLGK
light: QVQLLESGGGLVKPGGSLRLSCAASGFKSTDYYMAWVRQAPGRGLEWVSFISGRVFTNYTASVRGRFTVFREDDNTSVYLQMSRLRVEDTAVYYCARLRGIFRGPLKPLEYYFDLWGRGTLVTVSSASTKGPSVFPLAPCSRSTSESTAALGCLVKDYFPEPVTVSWNSGALTSGVHTFPAVLQSSGLYSLSSVVTVPSSNFGTQTYTCNVDHKPSNTKVDKTV
notes: also called candidate antibody
binding result [2]: binds

Further lines, with some results ahead:

decrease of the ratio of C5b-9 positive cells caused by humanized mAb35, at 0.15 µg/ml [1]: > 60%
B1: mAb192 C IgG2/4 (antibody)
heavy: DIQMTQSPPSLSASLGDKVTITCQASQDINKYIAWYQQKPGKAPRQLIRYTSILVLGTPSRFSGSGSGRDFSFSISNVASEDIASYYCLQYGNLYTFGAGTKLEIKRSSASTKGPSVFPLAPCSRSTSESTAALGCLVKDYFPEPVTVSWNSGALTSGVHTFPAVLQSSGLYSLSSVVTVPSSNFGTQTYTCNVDHKPSNTKVDKTVERKCCVECPPCPAPPVAGPSVFLFPPKPKDTLMISRTPEVTCVVVDVSQEDPEVQFNWYVDGVEVHNAKTKPREEQFNSTYRVVSVLTVLHQDWLNGKEYKCKVSNKGLPSSIEKTISKAKGQPREPQVYTLPPSQEEMTKNQVSLTCLVKGFYPSDIAVEWESNGQPENYKTTPPVLDSDGSFFLYSRLTVDKSRWQEGNVFSCSVMHEALHNHYTQKSLSLSLGK
light: B3 light
decrease of apoptosis (CDC cell death) caused by humanized mAb35, at 0.15 µg/ml [1]: > 37%

decrease of the ratio of C5b-9 positive cells caused by humanized mAb35, at 0.15 µg/ml [1]: > 60%
B2: mAb192 C IgG4 (antibody)
heavy: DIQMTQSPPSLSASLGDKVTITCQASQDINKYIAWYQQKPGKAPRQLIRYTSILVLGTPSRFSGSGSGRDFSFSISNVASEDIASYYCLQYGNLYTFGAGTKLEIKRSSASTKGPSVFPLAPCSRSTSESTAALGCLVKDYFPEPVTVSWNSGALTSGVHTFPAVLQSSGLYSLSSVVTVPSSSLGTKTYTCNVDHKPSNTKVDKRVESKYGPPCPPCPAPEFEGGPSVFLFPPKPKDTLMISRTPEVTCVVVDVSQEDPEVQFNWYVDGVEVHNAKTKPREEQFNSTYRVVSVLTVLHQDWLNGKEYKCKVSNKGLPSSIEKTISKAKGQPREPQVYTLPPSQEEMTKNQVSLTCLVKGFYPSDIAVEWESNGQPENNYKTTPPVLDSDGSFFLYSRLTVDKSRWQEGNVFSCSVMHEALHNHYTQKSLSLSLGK
light: B3 light
decrease of apoptosis (CDC cell death) caused by humanized mAb35, at 0.15 µg/ml [1]: > 37%

Source: patent EP4755915A1 (Medytox Inc., dated 2026)
